Measured values taken from patent US11207423B2, “Nanocarriers having surface conjugated peptides and uses thereof for sustained local release of drugs” (Northwestern University, priority 2016, dated 2021).
Ends that are not written are not given here.

Legend:
[1] = tested on: laser-induced choroidal neovascularization (CNV); details: single intravitreal injection of 1-ul 4 mg/ml 2 days before laser wounding; angiogenesis markers 14 days later
Method: FIG. 12B. […] A single injection of 1-ul 4 mg/ml peptide (SEQ ID NO:6) or control is injected into mouse vitreous 2 days before laser wounding of the retina. Angiogenesis markers are detected by antibody stain, 14 days later.

[2] = Rabbit eye clearance of Cy7-tagged nanoparticles by in vivo imaging (IVIS)
Method: FIG. 8. Slowed rabbit eye clearance in vivo with Cy7-tagged 3R-peptide CDEX conjugate. 20 μl of anchor peptide amino-PEG8-RRYRL-amide (SEQ ID NO:5) conjugate to CDEX (2.5 mg/ml) along with conjugated 0.05 moles/particle Cy7-amine was injected into rabbit eyes on day one. Left eye 14 peptides/particle, right eye 21 peptides/particle.
FIG. 10. In vivo charge and zeta potential-dependent loss of NP from rabbit vitreous expressed as a percentage of the first measured photon flux at day 10 post-injection (taken as day 0). Volume of injection: 25 μl; nanocarrier concentration: 3 mg/ml. [Control: CDEX70-0: (n=2). CDEX70-2R; 64 peptides per particle by BCA (n=3) and CDEX70-3R; 61 peptides per particle by BCA (n=3)]. Half-lives: CDEX-0: 4 days; CDEX-2R: 7 days; CDEX70-3R: 13 days. 2R and 3R peptides are respectively (SEQ ID NO:4) and (SEQ ID NO:5) linked as carbamates of 3pyrrolidineCO-amido-PEG8-CO-peptide to Cy7-CDEX70. Cy7 amine is carbamate-linked at <1 mole/mole NP.
Thus BCA protein analysis of increasing peptide, with time in filtrate after 30 kDa filtration of a loaded carrier sample in buffer estimates the half-life for peptide release in buffer. For confirmation in actual vitreous humor (e.g., rabbit) at time points post injection LC-MS estimation of the peptide in vitreous extract follows precipitation of excess HA after adding 3 volumes of ethanol. […] Free intravitreal peptide is assayed after centrifugation via 30 kDa MWCO spin filter.
Retention of the NP in vitreous was tested in vivo in rabbits. 25 μl of CDEX70-2R-Cy7 (SEQ ID NO:4) 3 mg/ml or CDEX70-3R-Cy7 (SEQ ID NO:5) 3 mg/ml was administered by intravitreal injection and imaged via an IVIS scan after 4 weeks and nine weeks. Left: 4-week experiment. (See FIG. 9). The in vivo diffusion dependent loss of NP from rabbit vitreous expressed as percentage of the first measurement at day 10 post-injection (taken as day 0) is provided in FIG. 10. The determined half-lives of the NP is as follows: CDEX-0-Cy7: 4 days; CDEX-2R-Cy7: 7 days; CDEX70-3R-Cy7: 13 days. In vivo diffusion-dependent loss of NP from rabbit vitreous expressed as Flux of the first measurement at day 10 post-injection (taken as day 0) of CDEX70-2R-Cy7 at 4 different concentrations [Control: 0 mg/ml (n=6). 3 mg/ml (n=3).

[3] = Zeta potential measurement (electrophoretic light scattering); assay type: physicochemical
Method: (§1) Sample characteristics (particle size, polydispersity and zeta-potential) were measured by a dynamic light scattering method using Malvern Zeta Sizer Nano-S90 instrument according to the manufacturer recommendations. Briefly, hydrodynamic diameter (dh) and polydispersity index (PDI) of nanogel/microgels were obtained for 1 mg/mL aqueous solutions at 25° C. in triplicates after sonication for 30 min and centrifugation at 12,000 rpm. Zeta-potential of the samples was measured for the same solutions in standard 1 cm-cuvettesusing zeta-potential option in the company's software. Average of five measurements±SD was registered.
(§2) Peptide concentration was estimated by BCA (Pierce) protein assay against a standard curve of free peptide. Zeta potential and size was measured on non-rhodamine product using electrophoretic light scattering and dynamic light scattering, respectively (Zetasizer, Malvern). The Z averaged particle size is 15 nm and the full width at half maximum of the distribution peak is 24 nm. Zeta potentials for 1-Arg, 2-Arg, 3-Arg and 4-Arg peptide conjugates were 0.07 mV, 2.2 mV, 4.6 mV and 9.2 mV respectively (Table 2).

[4] = Particle size measurement (dynamic light scattering); assay type: physicochemical
Method: as §1, §2

[5] = human vitreous; cited from earlier work

**Q.** Which retinal protective activity [1] does the source give for “adipic-Sar-Tyr-Asn-Leu-Tyr-Arg-Val-Arg-Ser-NH2 [SEQ ID NO:6]” here?
**A.** Its retinal protective activity is “reduction of laser-induced choroidal neovascularization (CNV)”.

**Q.** With “CDEX-3R-Cy7: Cy7-CDEX70 carbamate-linked to 3-pyrrolidine-CONH-PEG(8)-CO-Arg-Arg-Tyr-Arg-Leu-NH2 (SEQ ID NO:5) (RRYRL-NH2; not fully specified (N-terminus); printed as 3-pyrrolidine-CONH-PEG(8)-CO-Arg-Arg-Tyr-Arg-Leu-NH2; also: carbamate-linked to Cy7-CDEX70 nanocarrier)” as the substance, how does the “half-life of NP in rabbit vitreous” value ([2]; intravitreal 25 μl, 3 mg/ml, photon flux relative to day 10 post-injection (taken as day 0)) read?
**A.** The value was 13 days.

**Q.** And the “retention in eye compared with 2R peptide conjugate at similar peptide loading” value ([2]; rabbit, IVIS scans after 4 and 9 weeks)?
**A.** Its value is “retained longer in the eye”.

**Q.** And the Zeta potential [3]?
**A.** The Zeta potential was 6.34 ± 1.28 mV.

**Q.** What about the Particle size [4] of the same substance?
**A.** Its Particle size is 81.69 ± 7.44 nm.

**Q.** For “Cy7-tagged 3R-peptide CDEX conjugate: Anchor peptide amino-PEG8-RRYRL-amide (SEQ ID NO:5) conjugated to CDEX with 0.05 moles/particle Cy7-amine; 14 or 21 peptides/particle (RRYRL-NH2; not fully specified (N-terminus); printed as amino-PEG8-RRYRL-amide; also: Cy7-amine on CDEX particle)”, which fluorescence lost ([2]; rabbit left eye, 14 peptides/particle, 20 μl of 2.5 mg/ml) is on record?
**A.** Its fluorescence lost is greater than 90%.

**Q.** And the “residence in eye” value ([2]; rabbit right eye, 21 peptides/particle, 20 μl of 2.5 mg/ml)?
**A.** The value was “longer residence of conjugate in eye”.

**Q.** With “CDEX-AP3: CDI-activated CDEX nanogel carbamate-linked to AP3, amino-PEG(12)-CO-Arg-Arg-Ser-Arg-amide (SEQ ID NO:19) (RRSR-NH2; not fully specified (N-terminus); printed as amino-PEG(12)-CO-Arg-Arg-Ser-Arg-amide; also: carbamate-linked to CDI-activated CDEX nanogel)” as the substance, how does the Zeta potential [3] read?
**A.** Its Zeta potential is 4.58 mV.

**Q.** What about the Particle size [4] of the same substance?
**A.** Its Particle size is 124 ± 1.4 nm.

**Q.** Which half-life in vitreous [5] does the source give for “Ranibizumab: a VEGF inhibitor for treatment of advanced AMD” here?
**A.** The half-life in vitreous was “approximately 9 days”.
